Experimental data published in publication PMC4731272.

Tests used:
Assay in all cases: ITC
mTet3-CXXC = target: T1, mTet3-CXXC (Mus musculus (mouse), UniProt Q8BG87 51-96)
T1 chain: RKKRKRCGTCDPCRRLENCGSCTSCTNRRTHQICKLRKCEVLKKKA

XtTet3-CXXC = target: T2, XtTet3-CXXC (Xenopus tropicalis, UniProt A0JP82 58-99)
T2 chain: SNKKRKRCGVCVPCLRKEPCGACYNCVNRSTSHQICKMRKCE

mTet3-CXXC K88A = target: T3, mTet3-CXXC K88A (Mus musculus (mouse), UniProt Q8BG87 51-96, K88A)
T3 chain: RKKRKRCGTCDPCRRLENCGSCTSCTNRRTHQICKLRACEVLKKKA

mTet3-CXXC H81A = target: T4, mTet3-CXXC H81A (Mus musculus (mouse), UniProt Q8BG87 51-96, H81A)
T4 chain: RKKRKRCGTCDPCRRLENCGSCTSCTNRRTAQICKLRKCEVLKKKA

mTet3-CXXC Q82A = target: T5, mTet3-CXXC Q82A (Mus musculus (mouse), UniProt Q8BG87 51-96, Q82A)
T5 chain: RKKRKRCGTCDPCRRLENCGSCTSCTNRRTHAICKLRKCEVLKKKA

mTet3-CXXC T80A = target: T6, mTet3-CXXC T80A (Mus musculus (mouse), UniProt Q8BG87 51-96, T80A)
T6 chain: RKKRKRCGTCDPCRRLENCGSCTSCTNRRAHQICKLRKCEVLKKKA

B1: CfCG DNA (dsDNA)
DNA 1: GAATCCGGATTC
DNA 2: GAATCCGGATTC
modifications: 5-formyl-dC at position 6 of both strands
- Kd (mTet3-CXXC): 6130 nM
- Kd (XtTet3-CXXC): 10400 nM

B2: hemi-CcaCG DNA (dsDNA)
DNA 1: GAATCCGGATTC
DNA 2: GAATCCGGATTC
modifications: 5-carboxyl-dC at position 6 of one strand only
- Kd (mTet3-CXXC): 1570 nM

B3: CCG DNA (dsDNA)
DNA 1: GAATCCGGATTC
DNA 2: GAATCCGGATTC
- Kd (mTet3-CXXC): 1880 nM
- Kd (mTet3-CXXC K88A): 5320 nM
- binding result (mTet3-CXXC H81A): no binding
- Kd (mTet3-CXXC Q82A): 2380 nM
- Kd (mTet3-CXXC T80A): 1790 nM
- Kd (XtTet3-CXXC): 2580 nM

B4: CcaCG DNA (dsDNA)
DNA 1: GAATCCGGATTC
DNA 2: GAATCCGGATTC
modifications: 5-carboxyl-dC at position 6 of both strands
- Kd (mTet3-CXXC): 560 nM
- binding result (mTet3-CXXC H81A): no binding
- Kd (mTet3-CXXC Q82A): 970 nM
- Kd (mTet3-CXXC T80A): 910 nM
- Kd (XtTet3-CXXC): 1300 nM

B5: CmCG DNA (dsDNA)
DNA 1: GAATCCGGATTC
DNA 2: GAATCCGGATTC
modifications: 5-methyl-dC at position 6 of both strands
- Kd (mTet3-CXXC): 5590 nM
- Kd (XtTet3-CXXC): 9000 nM

B6: ChmCG DNA (dsDNA)
DNA 1: GAATCCGGATTC
DNA 2: GAATCCGGATTC
modifications: 5-hydroxymethyl-dC at position 6 of both strands
- Kd (XtTet3-CXXC): 18600 nM
